Here are results for 41 sequences from the supplement of paper PMC7877785.

± gives the uncertainty stated by the source.

This series can be described thus: self-splicing fitness, log relative to wild type (ln ratio); higher = more splicing; Tetrahymena group I intron in knt gene, E. coli kanamycin selection, DiMSum; sequences stand for … in CUCUCU…GGAGGGAAAAGUUAUCAGGCAUGCACCUGGUAGCUAGUCUUUAAACCAAUAGAUUGCAUCGGUUUAAAAGGCAAGACCGUCAAAUUGCGGGAAAGGGGUCAACAGCCGUUCAGUACCAAGUCUCAGGGGAAACUUUGAGAUGGCCUUGCAAAGGGUAUGGUAAUAAGCUGACGGACAUGGUCCUAACCACGCAGCCAAGUCCUAAGUCAACAGAUCUUCUGUUGAUAUGGAUGCAGUUCACAGACUAAAUGUCGGUCGGGGAAGAUGUAUUCUUCUCAUAAGAUAUAGUCGGACCUCUCCUUAAUGGGAGCUAGCGGAUGAAGUGAUGCAACACUGGAGCCGCUGGGAACUAAUUUGUAUGCGAAAGUAUAUUGAUUAGUUUUGGAGUACUCGUGGUCG
An outline of the steps:
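DiMSum derived fitness as the error-weighted combination of fold changes across replicates, kanamycin versus no kanamycin, normalised to wild type. E. coli BL21(DE3) held the library, which randomised all eight P1ex-region intron nucleotides within the knt kanamycin-resistance gene on pET-22b(+). Six replicate transformations grew overnight at 37°C or 30°C on LB agar with or without 25 μg/mL kanamycin, also containing 100 μg/mL carbenicillin, 50 μM IPTG and 0.2% rhamnose, and pooled colonies were amplicon-sequenced on an Illumina HiSeq 2500.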

For GGAAAGCAAUAUUACGCUAU, the “self-splicing fitness (ln)” value (30 °C) was -2.74 ± 0.28 and the “self-splicing fitness (ln)” value (37 °C) was -2.11 ± 0.21.

As for GGAAAGCAAUAUUACGCUGC, where the note is “30 °C”, the “self-splicing fitness (ln)” value is -3.32 ± 0.38.

As to GGAAAGCAAUAUUACGGAUU, the “self-splicing fitness (ln)” value was -1.93 ± 0.085 (30 °C) and -0.946 ± 0.11 (37 °C).

With GGAAAGCAAUAUUACGGCAC, the “self-splicing fitness (ln)” value was -0.927 ± 0.12 (30 °C) and -0.0107 ± 0.14 (37 °C).

Turning to GGAAAGCAAUAUUACGGGCU, the “self-splicing fitness (ln)” value was -1.29 ± 0.12 (30 °C) and -0.815 ± 0.18 (37 °C).

GGAAAGCAAUAUUACGUAUC: the “self-splicing fitness (ln)” value is -2.09 ± 0.18 (30 °C) and -1.01 ± 0.15 (37 °C).

With GGAAAGCAAUAUUACGUCAU, the “self-splicing fitness (ln)” value runs as follows: (30 °C) -2.34 ± 0.18; (37 °C) -1.38 ± 0.18.

Regarding GGAAAGCAAUAUUACGUCCU, the “self-splicing fitness (ln)” value is -3.68 ± 0.21 (30 °C) and -1.14 ± 0.14 (37 °C).

In the case of GGAAAGCAAUAUUACGUCUG, the “self-splicing fitness (ln)” value is, setting by setting: (30 °C) -0.579 ± 0.054; (37 °C) 0.2 ± 0.07.

Turning to GGAAAGCAAUAUUACGUCUU, the “self-splicing fitness (ln)” value by setting is: (30 °C) -0.00168 ± 0.13; (37 °C) -0.112 ± 0.15.

Consider GGAAAGCAAUAUUACGUGCU, for which the “self-splicing fitness (ln)” value (30 °C) was -1.11 ± 0.089 and the “self-splicing fitness (ln)” value (37 °C) is -0.467 ± 0.096.

In the case of GGAAAGCAAUAUUACGUUGU, the “self-splicing fitness (ln)” value runs as follows: (30 °C) -4.15 ± 0.23; (37 °C) -2.19 ± 0.15.

GGACAGCAAUAUUACGACGA: the “self-splicing fitness (ln)” value was -1.77 ± 0.16 (30 °C) and -0.403 ± 0.19 (37 °C).

Turning to GGACAGCAAUAUUACGACGG, the “self-splicing fitness (ln)” value was -2.69 ± 0.28 (30 °C) and -2.16 ± 0.36 (37 °C).

GGACAGCAAUAUUACGAGAU: the “self-splicing fitness (ln)” value (30 °C) is -3.03 ± 0.14 and the “self-splicing fitness (ln)” value (37 °C) is -1.45 ± 0.13.

Consider GGACAGCAAUAUUACGAUUU, for which the “self-splicing fitness (ln)” value (30 °C) was 0.167 ± 0.047 and the “self-splicing fitness (ln)” value (37 °C) was 0.417 ± 0.065.

With GGACAGCAAUAUUACGCACU, the “self-splicing fitness (ln)” value is -1.12 ± 0.086 (30 °C) and -0.6 ± 0.13 (37 °C).

With GGACAGCAAUAUUACGCUUG, the “self-splicing fitness (ln)” value is -1.45 ± 0.094 (30 °C) and -0.762 ± 0.11 (37 °C).

Regarding GGACAGCAAUAUUACGGAUA, the “self-splicing fitness (ln)” value is -1.13 ± 0.11 (30 °C) and -1.51 ± 0.093 (37 °C).

Consider GGACAGCAAUAUUACGGCCU, for which the “self-splicing fitness (ln)” value reads like this: (30 °C) -2.3 ± 0.13; (37 °C) -1.13 ± 0.12.

Regarding GGACAGCAAUAUUACGGGAC, the “self-splicing fitness (ln)” value by setting is: (30 °C) -1.56 ± 0.13; (37 °C) -1.98 ± 0.19.

Turning to GGACAGCAAUAUUACGGGUC, the “self-splicing fitness (ln)” value by setting is: (30 °C) -3.54 ± 0.23; (37 °C) -2.56 ± 0.26.

As for GGACAGCAAUAUUACGGUCG, the “self-splicing fitness (ln)” value was -1.1 ± 0.092 (30 °C) and -0.39 ± 0.14 (37 °C).

As to GGACAGCAAUAUUACGUAUU, the “self-splicing fitness (ln)” value runs as follows: (30 °C) -0.426 ± 0.049; (37 °C) -0.492 ± 0.068.

GGACAGCAAUAUUACGUCGC: the “self-splicing fitness (ln)” value runs as follows: (30 °C) -3.12 ± 0.18; (37 °C) 0.343 ± 0.15.

Turning to GGACAGCAAUAUUACGUCGU, the “self-splicing fitness (ln)” value was -1.45 ± 0.071 (30 °C) and -0.405 ± 0.075 (37 °C).

Turning to GGAGAGCAAUAUUACGAAAU, the “self-splicing fitness (ln)” value (37 °C) is -2.48 ± 0.48.

On to GGAGAGCAAUAUUACGACGC, for which the “self-splicing fitness (ln)” value is, setting by setting: (30 °C) -0.0524 ± 0.081; (37 °C) -0.0426 ± 0.092.

As for GGAGAGCAAUAUUACGACGG, the “self-splicing fitness (ln)” value was -2.35 ± 0.29 (30 °C) and -2.17 ± 0.36 (37 °C).

Regarding GGAGAGCAAUAUUACGAGAC, the “self-splicing fitness (ln)” value is, setting by setting: (30 °C) -2.12 ± 0.22; (37 °C) -1.88 ± 0.35.

As to GGAGAGCAAUAUUACGAUCU, the “self-splicing fitness (ln)” value (37 °C) is -2.47 ± 0.29.

For the sequence GGAGAGCAAUAUUACGAUGG, the “self-splicing fitness (ln)” value (30 °C) was -4.43 ± 0.46.

Consider GGAGAGCAAUAUUACGAUUA, for which the “self-splicing fitness (ln)” value (37 °C) is -0.884 ± 0.37.

For GGAGAGCAAUAUUACGAUUG, the “self-splicing fitness (ln)” value is, setting by setting: (30 °C) -2.75 ± 0.26; (37 °C) -2.17 ± 0.43.

For the sequence GGAGAGCAAUAUUACGAUUU, the “self-splicing fitness (ln)” value is -1.65 ± 0.24 (30 °C) and 0.185 ± 0.43 (37 °C).

In the case of GGAGAGCAAUAUUACGCCUC, the “self-splicing fitness (ln)” value (30 °C) was -3.07 ± 0.36.

As for GGAGAGCAAUAUUACGCGAA, the “self-splicing fitness (ln)” value (30 °C) was -2.02 ± 0.24 and the “self-splicing fitness (ln)” value (37 °C) is -2.72 ± 0.36.

On to GGAGAGCAAUAUUACGCGCA, for which the “self-splicing fitness (ln)” value runs as follows: (30 °C) -1.36 ± 0.19; (37 °C) -0.414 ± 0.21.

Regarding GGAGAGCAAUAUUACGCGGG, the “self-splicing fitness (ln)” value (30 °C) was -2.21 ± 0.35.

Consider GGAGAGCAAUAUUACGGAGA, for which the “self-splicing fitness (ln)” value (30 °C) was -2.3 ± 0.29.

In the case of GGAGAGCAAUAUUACGGGAC, the “self-splicing fitness (ln)” value by setting is: (30 °C) -2.46 ± 0.23; (37 °C) -0.231 ± 0.32.
